Measurements from patent publication US6001823A, “Treatment or prophylaxis of diseases caused by pilus-forming bacteria” (priority 1995, dated 1999).
“Also recorded” adds a separate entry of the source.

Tests used:
PapD [1] = biological target: T1, PapD (Escherichia coli, UniProt P15319); assay: Protection of PapD against tryptic cleavage by peptides; assay type: biochemical, E. coli; set-up: made in house; settings: PapD preincubated with 20-fold molar excess of peptide
T1 sequence (P15319 22-239): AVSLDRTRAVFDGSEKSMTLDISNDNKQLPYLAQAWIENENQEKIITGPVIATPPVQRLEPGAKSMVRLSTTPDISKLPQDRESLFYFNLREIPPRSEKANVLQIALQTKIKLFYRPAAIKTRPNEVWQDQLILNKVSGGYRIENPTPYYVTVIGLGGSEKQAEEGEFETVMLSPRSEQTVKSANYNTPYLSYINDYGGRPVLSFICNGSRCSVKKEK
Protocol: A Lower: The rate of trypsin cleavage of PapD decreased upon preincubation with the G1'-19'WT, G1'-16'WT or K1'-19'WT peptides, but the G2'-21'amide peptide had no effect. 50 μg of purified PapD was preincubated for 15 min at 25° C. with a 20-fold molar excess of G1'-19'WT, G1'-16'WT, K1'-19'WT or G2'-21'amide peptides (any trypsin cleavage sites in these peptides occur at their amino termini where they were predicted not to interfere with PapD), or an equivalent volume of water. Each sample was then incubated at 37° C. with 3.2 μg of trypsin. Aliquots were removed after 0, 5, 10, 20, 30 and 40 min and boiled in SDS-PAGE sample buffer to stop the digestion. The samples were applied to 15% SDS-PAGE gels and the amount of full-length PapD remaining was determined by densitometry of Coomassie blue stained bands corresponding to full-length PapD which are shown.
400 μg of PapD was partially digested by incubation with either 4,5 μg trypsin or 0.45 μg chymotrypsin on PBS for 20 min. at 37° C. The PapD digests were applied to a C-18 HPLC column (Beckman) and 2 major fragments were eluted with a 0-100% acetonitrile gradient in 0.01% trifluoroacetic acid. The PapD fragments were identified by their molecular weight on SDS-PAGE and amino-terminal sequencing. The N-terminal amino acid sequences of the approximately 14 kDa tryptic and chymotryptic fragments were identified as residues 100-108 and 104-109 of PapD, respectively, corresponding to cleavage after Lys-99 (for trypsin) and Leu-103 (for chymotrypsin). The N-terminal sequences of the 11 and 12 kDa bands in the digests were identical to the N-terminal sequence of PapD.

PapD-PapG complex = biological target: T2, PapD-PapG complex (Escherichia coli, UniProt P15319); assay: Reconstitution assay: restoration of PapD-PapG complex from reduced, denatured PapG; assay type: biochemical, E. coli; settings: PapD incubated with increasing amounts of peptide
T2 construct: made in house
T2 sequence (P15319 22-239): T1 sequence (P15319 22-239)
Protocol: B: PapD incubated with the G1'-19'WT, G1'-16'WT, K1'-19'WT, and G2'-21'amide was added to reduced, denatured PapD-PapG and the amount of PapD-PapG complex restored in each sample was quantitated as described in example 2. The % inhibition represents the amount of the PapD-PapG complex restored with peptide-treated PapD compared to the amount of PapD-PapG complex restored with untreated PapD. The graph represent the average of 4 experiments. PapD and PapD-PapG complex were prepared as described in F. Lindberg et al, J. Bacteriol. 171, 6052 (1989) and S. J. Hultgren et al., Proc. Natl. Acad. Sci. U.S.A. 86, 4357 (1989).
FIG. 7: Ability of PapD Arg-8, Lys-112 and Thr-7 mutants to bind PapG and restore the PapD-PapG complex in vitro. 0.4 μg of PapD-PapG complex was reduced and denatured as described in FIG. 2B. The denatured PapD-PapG complex was then diluted with 0-630 ng purified wild type (WT) or mutant PapD. The amount of PapD-PapG restored in the samples was determined as in FIG. 2B and was graphed as a percentage of the greatest amount of PapD-PapG restored. The values graphed represent the average of 3 experiments. Wild type and mutant PapD and the PapD-PapG complex were purified as described in F. Lindberg et al, J. Bacteriol. 171, 6052 (1989) and S. J. Hultgren et al., Proc. Natl. Acad. Sci. U.S.A. 86, 4357 (1989).
As described in Kuehn et al., Proc. Natl. Acad. Sci. U.S.A. 88, 10586 (1991), native PapD is able to bind to reduced, denatured PapG and restore the PapD-PapG complex in vitro. This reconstitution assay was used to determine the ability of the peptides to inhibit PapD activity in vitro.
The PapD-peptide solution was then added to the reduced, denatured PapD-PapG, incubated at 25° C. for 10 min, and applied to an IEF 3-9 gel (Pharmacia). The amount of PapD-PapG restored in each sample was quantitated by densitometry of the silver stained IEF band corresponding to the pI of the DG complex.

PapD [2] = biological target: T1, PapD; assay: ELISA: PapD binding to peptides coated on microtiter wells; set-up: made in house; species or system E. coli; settings: peptide coated on microtiter wells, ELISA
Protocol: The residues in the peptides were numbered starting with the carboxyl terminal residue as 1, and ending with the amino terminal residue. Peptides were also synthesized which deviated in length (G1'-16'WT, G1'-11'WT, G1'-7'WT) or sequence (G2'-21'amide, G1'-19'SV, G1'-19'NH2) from the wild type PapG carboxyl terminal sequence. Using an enzyme-linked immunosorbent assay (ELISA), we tested the ability of PapD to bind to each peptide coated on wells of microtiter plates:
5 mg/ml stock solutions of peptides in water or 50% acetic acid were diluted to a concentration of 2.5 pmol/50 μl in PBS. 50 μl of the peptide solution was coated overnight onto microtiter wells (Nunc-Immuno Plate Maxisorp) at 4° C. The solutions in the plates were discarded, and the wells were blocked with 200 μl 3% bovine serum albumin (BSA, Sigma) in PBS (120 mM NaCl/2.7 mM KCl/10 mM phosphate buffer salts, pH 7.4) for 2 hours at 25° C. The plates were washed vigorously 3 times with PBS and incubated with 50 μl of the indicated amount of purified PapD (Lindberg et al, 1989). After 3 washes with PBS, the wells were incubated with a 1:500 dilution of anti-PapD rabbit antiserum (Lindberg et al, 1989) in 3% BSA/PBS for 45 min. at 25° C. After 3 washes with PBS, the wells were incubated with a 1:1000 dilution of goat anti-rabbit IgG coupled to alkaline phosphatase (Sigma) in 3% BSA/PBS for 45 min. at 25° C. Following 3 washes with PBS and 3 washes with developing buffer (10 mM diethanolamine pH 9.5, 0,5 mM MgCl2), 50 μl filtered p-nitrophenyl phosphate substrate (Sigma) in developing buffer (10 mg/ml) was added. The absorbance at 405 nm was read after 60 min of incubation in the dark at 25° C.

NH2--KPGELSGSMTMVLSFP--COOH (H-KPGELSGSMTMVLSFP-OH) [G1'-16'WT]
rate of tryptic cleavage of PapD (PapD [1]): decreased; also recorded: reduced the rate of tryptic cleavage
inhibition of restoration of the PapD-PapG complex by PapD (PapD-PapG complex): inhibit restoration
binding of PapD to immobilized peptide (PapD [2]): binds
